# According to US20230190932A1 (Genentech, Inc., priority 2021, published 2023):
# “Also recorded” adds a separate entry of the source.
# Experiments:
# [1] = Chen N et al. Clin Pharmacokinet. 2017; cited from earlier work
# CD4+ and CD8+ T-cell = conditions: Haslett et al. 1998; Davies et al. 2001; cited from earlier work
# [2] = test system: patients with relapsed or refractory follicular lymphoma; conditions: in vivo
# Description: Patients with r/r FL after at least one prior systemic therapy are eligible to enter the study.
# Lenalidomide 20 mg was the dose for all patients.
# [3] = Study CO41942: mosunetuzumab pharmacokinetics in combination with lenalidomide vs popPK simulation of monotherapy (Study GO29781); type: in vivo, human; conditions: 1/2/30 mg IV Q4W; N = 13; preliminary
# R/R NHL patients [4] = conditions: in vivo
# R/R NHL patients [5] = assay: Related study with monotherapy mosunetuzumab (IV): safety summary
compound,measurement,setting,value
"Nc1cccc2c1CN(C1CCC(=O)NC1=O)C2=O (racemic) [lenalidomide, (3RS)-3-(4-Amino-1-oxo-1,3-dihydro-2H-isoindol-2-yl)piperidine-2,6-dione]",route of excretion,[1],primarily excreted in the urine
same,immunomodulatory activity on T cells,CD4+ and CD8+ T-cell,"enhance CD4+ and CD8+ T-cell co-stimulation, induce T-cell proliferation, and enhance IL-2 and IFN-γ"
"Mosunetuzumab: anti-CD20/anti-CD3 bispecific antibody, INN List 117, CAS Registry Number 1905409-39-3",AESI by PT: Alanine aminotransferase increased,[2],1 (6.3%)
same,AESI by PT: Aspartate aminotransferase increased,[2],1 (6.3%)
same,AESI by PT: Cytokine release syndrome,[2],5 (31.3%)
same,AESI by PT: Neutropenia,[2],4 (25.0%)
same,AESI by PT: Pleural effusion,[2],1 (6.3%)
same,AESI by PT: Thrombocytopenia,[2],1 (6.3%)
same,AESI: Overall total number of events,[2],20
same,Blood and lymphatic system disorders: Total number of AESI events,[2],10
same,Blood and lymphatic system disorders: Total number of Grade 3-5 events,[2],9
same,Blood and lymphatic system disorders: patients with at least one AESI,[2],4 (25.0%)
same,Blood and lymphatic system disorders: patients with at least one Grade 3-5 AE,[2],4 (25.0%)
same,Grade 3-5 AE: Erythema (Skin and subcutaneous tissue disorders),[2],1 (6.3%)
same,Grade 3-5 AE: Erythema (listed under Investigations),[2],1 (6.3%)
same,Grade 3-5 AE: Neutropenia,[2],4 (25.0%)
same,Grade 3-5 AE: Rash maculo-papular (Skin and subcutaneous tissue disorders),[2],1 (6.3%)
same,Grade 3-5 AE: Rash maculo-papular (listed under Investigations),[2],1 (6.3%)
same,Immune system disorders: Total number of AESI events,[2],7
same,Immune system disorders: patients with at least one AESI,[2],5 (31.3%)
same,Investigations: Total number of AESI events,[2],2
same,Investigations: Total number of Grade 3-5 events,[2],2
same,Investigations: patients with at least one AESI,[2],1 (6.3%)
same,Investigations: patients with at least one Grade 3-5 AE,[2],1 (6.3%)
same,"Respiratory, thoracic, and mediastinal disorders: Total number of AESI events",[2],1
same,"Respiratory, thoracic, and mediastinal disorders: patients with at least one AESI",[2],1 (6.3%)
same,Skin and subcutaneous tissue disorders: Total number of Grade 3-5 events,[2],2
same,Skin and subcutaneous tissue disorders: patients with at least one Grade 3-5 AE,[2],2 (12.5%)
same,Total number of patients with at least one AESI,[2],7 (43.8) %
same,Total number of patients with at least one Grade 3-5 AE,[2],5 (31.3%)
same,mosunetuzumab PK in combination with lenalidomide compared with monotherapy,[3],similar; also recorded: consistent with what was expected
same,observed concentration measurements vs popPK model simulated 5th to 95th prediction intervals,[3],fell generally within
same,AESI: Neutropenia/neutrophil count decrease,R/R NHL patients [4],56 (26.3) N (%)
same,AESI: ALT increased,R/R NHL patients [5]; N = 213,22 (10.3) N (%)
same,AESI: AST increased,R/R NHL patients [5]; N = 213,14 (6.6) N (%)
same,AESI: Febrile neutropenia,R/R NHL patients [5]; N = 213,6 (2.8) N (%)
same,AESI: Thrombocytopenia,R/R NHL patients [5]; N = 213,14 (6.6) N (%)
same,AESI: Tumor flare,R/R NHL patients [5]; N = 213,4 (1.9) N (%)
same,AESI: Tumor lysis syndrome,R/R NHL patients [5]; N = 213,3 (1.4) N (%)
same,AEs leading to dose modification/interruption,R/R NHL patients [5]; N = 213,29 (13.6) N (%)
same,AEs leading to dose modification/interruption: Mosunetuzumab,R/R NHL patients [5]; N = 213,29 (13.6) N (%)
same,AEs leading to treatment withdrawal,R/R NHL patients [5]; N = 213,7 (3.3) N (%)
same,AEs leading to treatment withdrawal: Mosunetuzumab,R/R NHL patients [5]; N = 213,7 (3.3) N (%)
same,Deaths,R/R NHL patients [5]; N = 213,64 (30.0) N (%)
same,Grade 3-5 AEs,R/R NHL patients [5]; N = 213,141 (66.2) N (%)
same,Patients who experienced at least one adverse event (AE),R/R NHL patients [5]; N = 213,207 (97.2) N (%)
same,Serious AEs,R/R NHL patients [5]; N = 213,107 (50.2) N (%)
same,Total number of AEs,R/R NHL patients [5]; N = 213,2258
same,Treatment-related AEs,R/R NHL patients [5]; N = 213,183 (85.9) N (%)
same,Treatment-related AEs: Mosunetuzumab,R/R NHL patients [5]; N = 213,183 (85.9) N (%)
same,Fatal AEs,"R/R NHL patients [5]; N = 213, does not include death due to progressive disease",5 (2.3) N (%)
same,AESI: Cytokine release syndrome,"R/R NHL patients [5]; per ASTCT criteria, N = 213",79 (37.1) N (%)
